Sequences and labels used below:
B1: Ab1071 (Fab, V domains shown)
VH: EVQLVESGGGLVQPGGSLRLSCAASGFDFSSYSIHWVRQAPGKGLEWVASISPYYGSTYYADSVKGRFTISADTSKNTAYLQMNSLRAEDTAVYYCARYYEWYKYDLYAGSLGFDYWGQGTLVTVSS
VL: DIQMTQSPSSLSASVGDRVTITCRASQSVSSAVAWYQQKPGKAPKLLIYSASSLYSGVPSRFSGSRSGTDFTLTISSLQPEDFATYYCQQGGYSLITFGQGTKVEIK
notes: also called LS2B R5M2 Fab
B2: Ab0936 (antibody, V domains shown)
VH: EVQLVESGGGLVQPGGSLRLSCAASGFDFSSYSIHWVRQAPGKGLEWVAAISPYYGSTYYADSVKGRFTISADTSKNTAYLQMNSLRAEDTAVYYCARYYEWYKYDLYLGSLGFDYWGQGTLVTVSS
VL: DIQMTQSPSSLSASVGDRVTITCRASQSVSSAVAWYQQKPGKAPKLLIYSASSLYSGVPSRFSGSRSGTDFTLTISSLQPEDFATYYCQQGGYSLITFGQGTKVEIK
notes: also called LS2B R6M2
B3: Ab0958 (antibody, V domains shown)
VH: EVQLVESGGGLVQPGGSLRLSCAASGFDFSSYSIHWVRQAPGKGLEWVASISPYYGSTYYADSVKGRFTISADTSKNTAYLQMNSLRAEDTAVYYCARYYEWYKYDLYLGSLGFDYWGQGTLVTVSS
VL: DIQMTQSPSSLSASVGDRVTITCRASQSVSSAVAWYQQKPGKAPKLLIYSASSLYSGVPSRFSGSRSGTDFTLTISSLQPEDFATYYCQQGGYSLIAFGQGTKVEIK
notes: also called LS2B R6M27
B4: Ab0939 (antibody, V domains shown)
VH: EVQLVESGGGLVQPGGSLRLSCAASGFDFSSYSIHWVRQAPGKGLEWVASISAYYGSTYYADSVKGRFTISADTSKNTAYLQMNSLRAEDTAVYYCARYYEWYKYDLYLGSLGFDYWGQGTLVTVSS
VL: DIQMTQSPSSLSASVGDRVTITCRASQSVSSAVAWYQQKPGKAPKLLIYSASSLYSGVPSRFSGSRSGTDFTLTISSLQPEDFATYYCQQGGYSLITFGQGTKVEIK
notes: also called LS2B R6M5
B5: Ab0953 (antibody, V domains shown)
VH: EVQLVESGGGLVQPGGSLRLSCAASGFDFSSYSIHWVRQAPGKGLEWVASISPYYGSTYYADSVKGRFTISADTSKNTAYLQMNSLRAEDTAVYYCARYYEWYKYDLYLGSLGFDYWGQGTLVTVSS
VL: DIQMTQSPSSLSASVGDRVTITCRASQSVSSAVAWYQQKPGKAPKLLIYSASSLYSGVPSRFSGSRSGTDFTLTISSLQPEDFATYYCQQGAYSLITFGQGTKVEIK
notes: also called LS2B R6M22
B6: Ab0937 (antibody, V domains shown)
VH: EVQLVESGGGLVQPGGSLRLSCAASGFDFSSYSIHWVRQAPGKGLEWVASASPYYGSTYYADSVKGRFTISADTSKNTAYLQMNSLRAEDTAVYYCARYYEWYKYDLYLGSLGFDYWGQGTLVTVSS
VL: DIQMTQSPSSLSASVGDRVTITCRASQSVSSAVAWYQQKPGKAPKLLIYSASSLYSGVPSRFSGSRSGTDFTLTISSLQPEDFATYYCQQGGYSLITFGQGTKVEIK
notes: also called LS2B R6M3
B7: Ab0944 (antibody, V domains shown)
VH: EVQLVESGGGLVQPGGSLRLSCAASGFDFSSYSIHWVRQAPGKGLEWVASISPYYGSTYYADSVKGRFTISADTSKNTAYLQMNSLRAEDTAVYYCARYYEWYKYALYLGSLGFDYWGQGTLVTVSS
VL: DIQMTQSPSSLSASVGDRVTITCRASQSVSSAVAWYQQKPGKAPKLLIYSASSLYSGVPSRFSGSRSGTDFTLTISSLQPEDFATYYCQQGGYSLITFGQGTKVEIK
notes: also called LS2B R6M10
B8: Ab0941 (antibody, V domains shown)
VH: EVQLVESGGGLVQPGGSLRLSCAASGFDFSSYSIHWVRQAPGKGLEWVASISPYYGATYYADSVKGRFTISADTSKNTAYLQMNSLRAEDTAVYYCARYYEWYKYDLYLGSLGFDYWGQGTLVTVSS
VL: DIQMTQSPSSLSASVGDRVTITCRASQSVSSAVAWYQQKPGKAPKLLIYSASSLYSGVPSRFSGSRSGTDFTLTISSLQPEDFATYYCQQGGYSLITFGQGTKVEIK
notes: also called LS2B R6M7

One assay deals with T1, Ab0786.
T1 construct: Fab, His-Tag, Avi-Tag; Ab0785 + HC I50M+S58N; also called LS2A R3M1 Fab; biotinylated-Ab0786
Nature of the assay: BLI +indinavir.
The molecule B1 yielded a Kd of 79 nM.

Another assay addresses T2, Ab0787.
T2 construct: Fab, His-Tag, Avi-Tag; Ab0785 + HC I50M; also called LS2A R3M2; Ab787
Nature of the assay: BLI 5-pt +indinavir.
For B2, the Kd is 1 nM.

A further assay has as its target T2, Ab0787. Description: BLI 1-pt +indinavir.
In the case of B2, the Kd was 5.7 nM.

In turn, B3 came in with a Kd of 42 nM.

On to B4, for which the Kd was 40 nM.

For the molecule B5, the Kd was 50 nM.

As for B6, the affinity, expressed as Kd, was 42 nM.

As for B7, binding was characterised by a dissociation constant (Kd) of 100 nM.

B8: the affinity, expressed as Kd, was 49 nM.

The values above are taken from patent publication US20240190987A1 (TIGATX, published 2024).
